This note sets out measurements from patent publication US20210206811A1.

The target in this assay is retromer endogenous in HeLa cells (detected through its subunit Vps35) (UniProt Q96QK1). Nature of the assay: cell-based or functional assay.
Chain of retromer endogenous in HeLa cells (detected through its subunit Vps35) (O75436 whole entry): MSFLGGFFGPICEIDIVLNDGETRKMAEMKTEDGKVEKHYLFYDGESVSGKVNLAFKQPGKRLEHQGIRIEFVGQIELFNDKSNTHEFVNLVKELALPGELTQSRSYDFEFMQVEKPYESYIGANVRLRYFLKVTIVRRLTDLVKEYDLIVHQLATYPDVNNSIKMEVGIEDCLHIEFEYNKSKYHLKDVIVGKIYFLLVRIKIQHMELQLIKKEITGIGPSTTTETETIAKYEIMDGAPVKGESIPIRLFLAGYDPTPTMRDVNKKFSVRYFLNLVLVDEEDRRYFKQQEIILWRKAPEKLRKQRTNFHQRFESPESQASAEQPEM

In turn, “3R mutant HPV16 pseudovirus (L2 with three arginines in place of RKRRKR) (from UniProt P03101 1-505)” had a Vps35/L1 PLA signal of 75 % reduction.
